According to IntAct's records for PubMed 23434407:

B1: Calcium-binding protein 39 (Homo sapiens), Q9Y376 (parent)
chain: MPFPFGKSHKSPADIVKNLKESMAVLEKQDISDKKAEKATEEVSKNLVAMKEILYGTNEKEPQTEAVAQLAQELYNSGLLSTLVADLQLIDFEGKKDVAQIFNNILRRQIGTRTPTVEYICTQQNILFMLLKGYESPEIALNCGIMLRECIRHEPLAKIILWSEQFYDFFRYVEMSTFDIASDAFATFKDLLTRHKLLSAEFLEQHYDRFFSEYEKLLHSENYVTKRQSLKLLGELLLDRHNFTIMTKYISKPENLKLMMNLLRDKSRNIQFEAFHVFKVFVANPNKTQPILDILLKNQAKLIEFLSKFQNDRTEDEQFNDEKTYLVKQIRDLKRPAQQEA

Variants of: B1
Details: with STK26, Q9P289-1
Chain of STK26, Q9P289-1 (Q9P289 whole entry, looked up): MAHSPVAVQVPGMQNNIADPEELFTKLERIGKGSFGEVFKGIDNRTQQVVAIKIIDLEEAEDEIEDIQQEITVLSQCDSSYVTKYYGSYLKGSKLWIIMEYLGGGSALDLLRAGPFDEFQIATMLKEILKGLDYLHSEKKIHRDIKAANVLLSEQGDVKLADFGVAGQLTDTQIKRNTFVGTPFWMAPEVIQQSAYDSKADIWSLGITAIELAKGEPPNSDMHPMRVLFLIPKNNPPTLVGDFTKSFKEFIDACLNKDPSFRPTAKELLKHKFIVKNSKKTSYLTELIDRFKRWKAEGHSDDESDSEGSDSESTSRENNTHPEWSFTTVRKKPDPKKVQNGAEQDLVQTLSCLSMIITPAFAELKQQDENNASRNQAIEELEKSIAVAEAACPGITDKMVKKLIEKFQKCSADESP

Row | Variant | effect of a mutation on the interaction
1 | MPFPFGKSHKSPADIVKNLKESMAVLEKQDISDKKAEKATEEVSKNLVAMKEILYGTNEKEPQTEAVAQLAQELYNSGLLSTLVADLQLIDFEGKKDVAQIFNNILRRQIGTRTPTVEYICTQQNILFMLLKGYESPEIALNCGIMLRECIRHEPLAKIILWSEQFYDFFRYVEMSTFDIASDAFATFKDLLTRHKLLSAEFLEQHYDRFFSEYEKLLHSENAVTKRQSLKLLGELLLDRHNFTIMTKYISKPENLKLMMNLLRDKSRNIQFEAFHVFKVFVANPNKTQPILDILLKNQAKLIEFLSKFQNDRTEDEQFNDEKTYLVKQIRDLKRPAQQEA [Y223A] | decreasing interaction strength
2 | MPFPFGKSHKSPADIVKNLKESMAVLEKQDISDKKAEKATEEVSKNLVAMKEILYGTNEKEPQTEAVAQLAQELYNSGLLSTLVADLQLIDFEGKKDVAQIFNNILRRQIGTRTPTVEYICTQQNILFMLLKGYESPEIALNCGIMLRECIRHEPLAKIILWSEQFYDFFRYVEMSTEDIASDAFATFKDLLTRHKLLSAEFLEQHYDRFFSEYEKLLHSENYETKRQSLKLLGELLLDRHNFTIMTKYISKPENLKLMMNLLRDKSRNIQFEAFHVFKVFVANPNKTQPILDILLKNQAKLIEFLSKFQNDRTEDEQFNDEKTYLVKQIRDLKRPAQQEA [F178E;V224E] | decreasing interaction strength
3 | MPFPFGKSHKSPADIVKNLKESMAVLEKQDISDKKAEKATEEVSKNLVAMKEILYGTNEKEPQTEAVAQLAQELYNSGLLSTLVADLQLIDFEGKKDVAQIFNNILRRQIGTRTPTVEYICTQQNILFMLLKGYESPEIALNCGIMLRECIRHEPLAKIILWSEQFYDFFRYVEMSTFDIASDAFATFKDLLTRHKLLSAEFLEQHYDRFFSEYEKLLHSENYVTKAQSLKLLGELLLDRHNFTIMTKYISKPENLKLMMNLLRDKSRNIQFEAFHVFKVFVANPNKTQPILDILLKNQAKLIEFLSKFQNDRTEDEQFNDEKTYLVKQIRDLKRPAQQEA [R227A] | decreasing interaction strength
4 | MPFPFGKSHKSPADIVKNLKESMAVLEKQDISDKKAEKATEEVSKNLVAMKEILYGTNEKEPQTEAVAQLAQELYNSGLLSTLVADLQLIDFEGKKDVAQIFNNILRRQIGTRTPTVEYICTQQNILFMLLKGYESPEIALNCGIMLRECIRHEPLAKIILWSEQFYDFFRYVEMSTEDIASDAFATFKDLLTRHKLLSAEFLEQHYDRFFSEYEKLLHSENYVTKRQSLKLLGELLLDRHNFTIMTKYISKPENLKLMMNLLRDKSRNIQFEAFHVFKVFVANPNKTQPILDILLKNQAKLIEFLSKFQNDRTEDEQFNDEKTYLVKQIRDLKRPAQQEA [F178E] | decreasing interaction strength
5 | MPFPFGKSHKSPADIVKNLKESMAVLEKQDISDKKAEKATEEVSKNLVAMKEILYGTNEKEPQTEAVAQLAQELYNSGLLSTLVADLQLIDFEGKKDVAQIFNNILRRQIGTRTPTVEYICTQQNILFMLLKGYESPEIALNCGIMLRECIRHEPLAKIILWSEQFYDFFRYVEMSTFDIASDAFATFKDLLTRHKLLSAEFLEQHYDRFFSEYEKLLHSENYVTKRQSLKLLGELLLDRHNFTIMTKYISKPENLKLMENLLRDKSRNIQFEAFHVFKVFVANPNKTQPILDILLKNQAKLIEFLSKFQNDRTEDEQFNDEKTYLVKQIRDLKRPAQQEA [M260E] | decreasing interaction strength

Variants of: B1
Details: with STK26, Q9P289-1
Remark: another data set of the same source

Row | Variant | effect of a mutation on the interaction
6 | MPFPFGKSHKSPADIVKNLKESMAVLEKQDISDKKAEKATEEVSKNLVAMKEILYGTNEKEPQTEAVAQLAQELYNSGLLSTLVADLQLIDFEGKKDVAQIFNNILRRQIGTRTPTVEYICTQQNILFMLLKGYESPEIALNCGIMLRECIRHEPLAKIILWSEQFYDFFRYVEMSTEDIASDAFATFKDLLTRHKLLSAEFLEQHYDRFFSEYEKLLHSENYETKRQSLKLLGELLLDRHNFTIMTKYISKPENLKLMMNLLRDKSRNIQFEAFHVFKVFVANPNKTQPILDILLKNQAKLIEFLSKFQNDRTEDEQFNDEKTYLVKQIRDLKRPAQQEA [F178E;V224E] | disrupting interaction strength
7 | MPFPFGKSHKSPADIVKNLKESMAVLEKQDISDKKAEKATEEVSKNLVAMKEILYGTNEKEPQTEAVAQLAQELYNSGLLSTLVADLQLIDFEGKKDVAQIFNNILRRQIGTRTPTVEYICTQQNILFMLLKGYESPEIALNCGIMLRECIRHEPLAKIILWSEQFYDFFRYVEMSTFDIASDAFATFKDLLTRHKLLSAEFLEQHYDRFFSEYEKLLHSENYVTKRQSLKLLGELLLDRHNFTIMTKYISKPENLKLMENLLRDKSRNIQFEAFHVFKVFVANPNKTQPILDILLKNQAKLIEFLSKFQNDRTEDEQFNDEKTYLVKQIRDLKRPAQQEA [M260E] | disrupting interaction strength
